pKd: −log10 of the molar value.
Assays:
Assay in all cases: IEDB peptide-MHC binding, purified MHC/competitive/radioactivity; filed as Kd, often an IC50 or EC50 that approximates it; ≥ and ≤ were set here for values at or beyond the usual limits of such assays
Conditions in all cases: source organism: Toxoplasma gondii
HLA-A*02:01 = biological target: HLA-A*02:01
HLA-A*68:02 = biological target: HLA-A*68:02
HLA-A*02:06 = biological target: HLA-A*02:06
HLA-A*02:03 = biological target: HLA-A*02:03
HLA-A*02:02 = biological target: HLA-A*02:02

Row | Sequence | pKd (HLA-A*02:01) | pKd (HLA-A*68:02) | pKd (HLA-A*02:06) | pKd (HLA-A*02:03) | pKd (HLA-A*02:02)
1 | GLAAAVVAV | 8.02 | 6.58 | 7.26 | 8.89 | 7.51
2 | FVIFACNFV | 7.47 | 8.92 | 8.25 | 8.19 | 7.96
3 | ITMGSLFFV | 9.80 | 8.96 | 9.59 | 9.30 | 9.19
4 | FMIAFISCFA | 7.49 | 6.40 | 6.95 | 7.25 | 7.25
5 | FMIVSISLV | 7.80 | 7.32 | 8.21 | ≥ 9.00 | 8.74
6 | FLTDYIPGA | 9.15 | 5.68 | 8.92 | 8.11 | 8.15
7 | FLSLSLLVI | 6.13 | 5.01 | ≤ 5.00 | 7.08 | 6.76
8 | FLLGLLVHV | 8.19 | 6.76 | 8.00 | 8.34 | 7.43

Reference: the Immune Epitope Database (IEDB)
